This data set concerns MS2 coat protein. Kind of data set: apparent KD of MS2 coat protein; designed switch direction (-1 OFF switch, 1 ON switch): -1; higher = weaker reporter binding. Summed up:
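Stalled E. coli RNA polymerase transcribed designed RNA switches on Illumina chips, which were then titrated with SNAP-549-labelled MS2 coat protein, doubling from 0.7 or 1.5 nM to 3 µM. Steps lasted from 0.8–1.5 h at the lowest concentration to 10–20 min at the highest. The apparent KD is each design's median over clusters of curve-fitted normalised fluorescence.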

[1] abbreviates: input ligand: microRNA oligo, concentration not stated.
Setting [2] is: Eterna round: R95, input ligand: microRNA oligo, concentration not stated.
Where [3] appears, read: Eterna round: R95, input ligand: FMN 200 uM.
The mark [4] stands for this setting: Eterna round: R95, input ligand: none.

Consider “UAUUCGCGAGGAUAUGCAGUCGAGUCCAUUACGUGUCUGGGACUUGAGGAUCACCCAAGUAGAAGGCGUCUCAU [salish99_ex2_r4_642] (Eterna round: R97, puzzle: Exclusion 2)”, for which the “apparent KD of MS2 coat protein” value runs as follows: (input ligand: FMN 200 uM) 124 nM; (input ligand: none) 123 nM. Turning to “UAUUGCAAGUGAGGAUAUGACAUGAGGAUCACCCAUGUAAAGGGAGUUGACUAUAUAGCAAGAUAUCAGAAGGCACAACUGUAU [JR_ExcNG2_Sub004] (Eterna round: R96, puzzle: Exclusion NG 2)”, the “apparent KD of MS2 coat protein” value is 309 nM (input ligand: FMN 200 uM), 114 nM under setting [1] and 131 nM (input ligand: none).

On to “UAUUGCAAGUGAGGAUAUGACAUGAGGAUCACCCAUGUAAAGGGAGUUGGCUAUAUAGCAAGAUAUCAGAAGGCACAACUGUAU [JR_ExcNG2_Sub005] (Eterna round: R96, puzzle: Exclusion NG 2)”, for which the “apparent KD of MS2 coat protein” value was determined as 76.7 nM (input ligand: FMN 200 uM), 25.9 nM under setting [1] and 64.3 nM (input ligand: none). In the case of “UAUUUAGCAAGCAGAUCCCACAUGAGGAUCACCCAUGUUCUCUGAAAGUACAGAAUUACUGUACAUGCUCGUCUUAU [Winner reversed engineered 33] (Eterna round: R97, puzzle: Sensor, turn-off variant 1)”, the “apparent KD of MS2 coat protein” value is, setting by setting: (input ligand: FMN 200 uM) 108 nM; (input ligand: none) 130 nM. With “UAUUUAGCAAGCAGAUCCUACAUGAGGAUCACCCAUGUGCUCUGAACGUACAGAAUUACUGUACGAGCUCGUCUUAU [Winner reversed engineered 29] (Eterna round: R97, puzzle: Sensor, turn-off variant 1)”, the “apparent KD of MS2 coat protein” value (input ligand: FMN 200 uM) turned out to be 166 nM and the “apparent KD of MS2 coat protein” value (input ligand: none) was determined as 198 nM.

“UAUUUGCAAGCGAGAUCCCACAUGAGGAUCACCCAUGUUCUUUGAAAGUACAGAAUUACUGUACAAGCUCGUCUUAU [Winner reversed engineered 31] (Eterna round: R97, puzzle: Sensor, turn-off variant 1)”: the “apparent KD of MS2 coat protein” value is, setting by setting: (input ligand: FMN 200 uM) 62.6 nM; (input ligand: none) 73.4 nM. With “UCAAAGCUAGGAUAUACAUGAGGAUCACCCAUGUUAUCACCCAUCGGGUCUUGCUUUUGUAGAAGGAGCAAUAA [Xeinso] (puzzle: Exclusion 3)”, the “apparent KD of MS2 coat protein” value under setting [2] is 25.6 nM. For the sequence “UCAAGUAUGUAGGAUAUCGAUGUCUUCGGACAUCGAGAAGGACGUACAUGAGGAUCACCCAUGUAACUUGCAUG [Exclusion 6 - B - 10:a] (puzzle: Exclusion 6)”, the “apparent KD of MS2 coat protein” value under setting [2] was 55.2 nM.

Take “UCAAGUAUGUAGGAUAUGAUGUGAUUAUACAUAUCAGAAGGACGUACAUGAGGAUCACCCAUGUAACUUGCAUG [Exclusion 6 - B - 12:c] (puzzle: Exclusion 6)”: the “apparent KD of MS2 coat protein” value under setting [3] was 29.8 nM, the “apparent KD of MS2 coat protein” value under setting [2] was determined as 59.1 nM and the “apparent KD of MS2 coat protein” value under setting [4] was 52.6 nM. As to “UCAAGUCCAUAGGAUAUCGACCAGUCCUCUGGAUGAGAAGGAUGAACUUGAGGAUCACCCAAGUGGCCGAAUAA [Aesin] (Eterna round: R97, puzzle: Exclusion 6)”, the “apparent KD of MS2 coat protein” value (input ligand: FMN 200 uM) came out at 152 nM and the “apparent KD of MS2 coat protein” value (input ligand: none) worked out at 46.3 nM. Consider “UCAAUUUUGACAGGAUAUAGUUUUUGUUUUUCUCUAGAAGGGUCUUUGCACAUGAGGAUCACCCAUGUUCUUUUUAUUUGCAUU [JR_ExcNG1_Sub015] (Eterna round: R96, puzzle: Exclusion NG 1)”, for which the “apparent KD of MS2 coat protein” value came to 62.2 nM (input ligand: FMN 200 uM), 42.3 nM under setting [1] and 63.3 nM (input ligand: none). In the case of “UCACGGGACUAAGGAUAUAUGAGUACCAUUUACAUAGAAGGUAGAAUGUUAGAUCAUAAACUAAACAUGAGGAUCACCCAUGUU [JR_ExcNG1_Sub092] (Eterna round: R96, puzzle: Exclusion NG 1)”, under setting [1], the “apparent KD of MS2 coat protein” value was 15.3 nM. For the sequence “UCAUGUCCAGAGGAUAUGUAGCGGAUAAACGCAACAGAAGGCUGGACAUGAGGAUCACCCAUGUGUGCCUUCUA [Exclusion 6 Mod3 of JL of Mod of Letion by ViennaUCT] (Eterna round: R97, puzzle: Exclusion 6)”, the “apparent KD of MS2 coat protein” value runs as follows: (input ligand: FMN 200 uM) 81.3 nM; (input ligand: none) 227 nM.

Consider “UCCACACAUGAGGAUCACCCAUGUGAGGAUAUCAUGCUUCGUAGUAAACUACGAAGUGUGAGAAGGCACAUGGC [Omei Ex1 D13] (Eterna round: R97, puzzle: Exclusion 1)”, for which the “apparent KD of MS2 coat protein” value by setting is: (input ligand: FMN 200 uM) 94.7 nM; (input ligand: none) 24.9 nM.

On to “UCCACGUAAGGAUAUGGUCAUUGUGACUUGAGGAUCACCCAAGUUGUGAGCUUCCGUCACCCAGAAGGUGCAUGGU [Oratin] (Eterna round: R97, puzzle: Exclusion 5)”, for which the “apparent KD of MS2 coat protein” value reads like this: (input ligand: FMN 200 uM) 216 nM; (input ligand: none) 99.9 nM.

For “UCCAUGUCAGGAUAUCCUAGCGCAAAGUUGCCCGCGCUGCUGGAGAAGGGACAUGAGGAUCACCCAUGUCUACA [EX4 C.10] (Eterna round: R97, puzzle: Exclusion 4)”, the “apparent KD of MS2 coat protein” value is, setting by setting: (input ligand: FMN 200 uM) 76.8 nM; (input ligand: none) 23.2 nM. Turning to “UCCCGUGAAGGAUAUGGUUACAGGCACAUGAGGAUCACCCAUGUCACCUCGAAUACCUGAUCAGAAGGUUACUCGA [Eternabot (Original) Solution 40] (Eterna round: R97, puzzle: Exclusion 5)”, the “apparent KD of MS2 coat protein” value by setting is: (input ligand: FMN 200 uM) 20.1 nM; (input ligand: none) 19.9 nM. The corresponding values for “UCCGAACAUGAGGAUCACCCAUGUCAGGAUAUAUUAAAGAAAGCCCGCGAAUGUGGGUAUAGAAGGGACAUGAA [Zaatinxe] (Eterna round: R97, puzzle: Exclusion 1)” are 15.8 nM and 15.6 nM. “UCCGCCAAAGGAUAUACUGGGCGUUAAAAUCCUCUUAAAAGACAUGAGGAUCACCCAUGUAGAAGGUUGAGGAA [Isererri] (puzzle: Exclusion 2)”: the “apparent KD of MS2 coat protein” value under setting [2] stood at 201 nM. With “UCCUCACAUGAGGAUCACCCAUGUCAGGAUAUACAAGAAAAUAACCGGAAAGAACGGAGUAGAAGGGACAUAAG [Xeontiorer] (puzzle: Exclusion 1)”, the “apparent KD of MS2 coat protein” value was determined as 27.4 nM under setting [3], 15.6 nM under setting [2] and 15.5 nM under setting [4]. Consider “UCCUUAGCGGUCAGGAUAUACACCCGUUUCUCCUUGUAGAAGGGACAUGAGGAUCACCCAUGUACAGUACAUCU [alecazam64] (Eterna round: R97, puzzle: Brourd's mod of Exclusion 4)”, for which the “apparent KD of MS2 coat protein” value is, setting by setting: (input ligand: FMN 200 uM) 18.6 nM; (input ligand: none) 17.6 nM.

In the case of “UCGCUCCGUGUAGGAUAUCGCCGUACUAUACGGCGAGAAGGACAUGAGGAUCACCCAUGUAUGUUAUUAUCACGCGUGGCGCAA [Design 60] (Eterna round: R96, puzzle: Exclusion NG 1)”, the “apparent KD of MS2 coat protein” value was 21 nM (input ligand: FMN 200 uM), 11.5 nM under setting [1] and 22.2 nM (input ligand: none). Regarding “UCGCUCCGUGUAGGAUAUCGCCGUAUGAUGCGGCGAGAAGGACAUGAGGAUCACCCAUGUAUGUUAUUAUCACGCGUGGCGCAA [Design 63] (Eterna round: R96, puzzle: Exclusion NG 1)”, the “apparent KD of MS2 coat protein” value by setting is: (input ligand: FMN 200 uM) 17.4 nM; under setting [1], 12 nM; (input ligand: none) 16.9 nM. For the sequence “UCGCUGCGAGGAUAUACAUGAGGAUCACCCAUGUACGGGUCCGGGUCUUUGUCUAUUGGUAGAAGGCGCAGUGA [JL Laongeedie mod 9] (puzzle: Exclusion 3)”, the “apparent KD of MS2 coat protein” value under setting [2] was determined as 51.5 nM. In the case of “UCGCUGCGAGGAUAUACGUGCGCGCGCUUUCGUUUGCGCGUACAUGAGGAUCACCCAUGUAGAAGGCGCGCUGC [Apr-15 SS2-6] (puzzle: Exclusion 2)”, the “apparent KD of MS2 coat protein” value under setting [2] is 12.7 nM. Still for that read-out and setting: the same measure for “UCGGCGCGAGGAUAUACGUUUGCGCUUUUUCGUUUUUGCGUACAUGAGGAUCACCCAUGUAGAAGGCGCGCCGC [Apr-15 SS2-17] (puzzle: Exclusion 2)”: 14 nM; for “UCGGCGCGAGGAUAUACGUUUGCUUUUUAGGAUCGUGGCGUACAUGAGGAUCACCCAUGUAGAAGGCGCGCCGC [Apr-15 SS2-28] (puzzle: Exclusion 2)”: 12.4 nM; for “UCGGCGCGAGGAUAUACGUUUGCUUUUUUUUGUCGUUGCGUACAUGAGGAUCACCCAUGUAGAAGGCGCGCCGC [Apr-15 SS2-23] (puzzle: Exclusion 2)”: 16.8 nM.

Take “UCGGCGCGAGGAUAUGCGGCUCCUGCUUCGGGCCGGAGCGUACAUGAGGAUCACCCAUGUAGAAGGCGCGCCGC [Apr-15 SS2-39] (puzzle: Exclusion 2)”: under setting [2], the “apparent KD of MS2 coat protein” value turned out to be 10.2 nM. “UCGGCGCGAGGAUAUGCGGCUGCUGCUUCGGGCCGUGGCGUACAUGAGGAUCACCCAUGUAGAAGGCGCGCCGC [Apr-15 SS2-40] (Eterna round: R96, puzzle: Exclusion 2)”: the “apparent KD of MS2 coat protein” value is 12.9 nM (input ligand: FMN 200 uM), 10.4 nM under setting [1] and 14.8 nM (input ligand: none). As to “UCGGCGCGAGGAUAUGCGGCUGCUGCUUCGGGCCGUGGCGUACAUGAGGAUCACCCAUGUAGAAGGCGCGCCGC [Apr-15 SS2-40] (puzzle: Exclusion 2)”, the “apparent KD of MS2 coat protein” value under setting [2] was 11.3 nM. On the same count and under the same terms, the same measure for “UCGGCGCGAGGAUAUGCGGUUCCUCCCUCGGGCCGGAGCGUACAUGAGGAUCACCCAUGUAGAAGGCGCGCCGC [Apr-15 SS2-36] (puzzle: Exclusion 2)”: 11.7 nM. Consider “UCGGCGCGAGGAUAUGCGGUUCCUUCUUCGGGCCGGAGCGUACAUGAGGAUCACCCAUGUAGAAGGCGCGCCGC [Apr-15 SS2-37] (puzzle: Exclusion 2)”, for which the “apparent KD of MS2 coat protein” value under setting [2] was found to be 12.6 nM. On to “UCGGGCGCAGGAUAUGCCUUCCGGUACAUGAGGAUCACCCAUGUCGGGCAGUGCUGCGGAGUAGAAGGGCGUUGAG [Eternabot (L2) Solution 74] (Eterna round: R97, puzzle: Exclusion 5)”, for which the “apparent KD of MS2 coat protein” value is, setting by setting: (input ligand: FMN 200 uM) 15.8 nM; (input ligand: none) 16.6 nM.

These data come from the supplement of paper PMC9170038.
